From patent publication US20120244164A1

What was measured:
[1] = target: Human c-Met (human) (UniProt P08581); experiment: competition flow cytometry: 1 nM biotinylated hHGF on A549 cells
[2] = target: cynomolgus c-Met (cynomolgus monkey); experiment: competition FACS: 0.5 nM biotinylated HGF on BAF3 cells with cynomolgus c-Met
[3] = target: Human c-Met (human) (UniProt P08581); experiment: cell-based or functional assay
[4] = target: recombinant human c-Met/Fc chimera (R&D systems) (human); experiment: HGF/c-Met competition Alphascreen: biotinylated hHGF, human c-Met/Fc
recombinant human c-Met/Fc chimera (R&D systems) (human), sequence (chain, as listed by the source mutant limits assumed): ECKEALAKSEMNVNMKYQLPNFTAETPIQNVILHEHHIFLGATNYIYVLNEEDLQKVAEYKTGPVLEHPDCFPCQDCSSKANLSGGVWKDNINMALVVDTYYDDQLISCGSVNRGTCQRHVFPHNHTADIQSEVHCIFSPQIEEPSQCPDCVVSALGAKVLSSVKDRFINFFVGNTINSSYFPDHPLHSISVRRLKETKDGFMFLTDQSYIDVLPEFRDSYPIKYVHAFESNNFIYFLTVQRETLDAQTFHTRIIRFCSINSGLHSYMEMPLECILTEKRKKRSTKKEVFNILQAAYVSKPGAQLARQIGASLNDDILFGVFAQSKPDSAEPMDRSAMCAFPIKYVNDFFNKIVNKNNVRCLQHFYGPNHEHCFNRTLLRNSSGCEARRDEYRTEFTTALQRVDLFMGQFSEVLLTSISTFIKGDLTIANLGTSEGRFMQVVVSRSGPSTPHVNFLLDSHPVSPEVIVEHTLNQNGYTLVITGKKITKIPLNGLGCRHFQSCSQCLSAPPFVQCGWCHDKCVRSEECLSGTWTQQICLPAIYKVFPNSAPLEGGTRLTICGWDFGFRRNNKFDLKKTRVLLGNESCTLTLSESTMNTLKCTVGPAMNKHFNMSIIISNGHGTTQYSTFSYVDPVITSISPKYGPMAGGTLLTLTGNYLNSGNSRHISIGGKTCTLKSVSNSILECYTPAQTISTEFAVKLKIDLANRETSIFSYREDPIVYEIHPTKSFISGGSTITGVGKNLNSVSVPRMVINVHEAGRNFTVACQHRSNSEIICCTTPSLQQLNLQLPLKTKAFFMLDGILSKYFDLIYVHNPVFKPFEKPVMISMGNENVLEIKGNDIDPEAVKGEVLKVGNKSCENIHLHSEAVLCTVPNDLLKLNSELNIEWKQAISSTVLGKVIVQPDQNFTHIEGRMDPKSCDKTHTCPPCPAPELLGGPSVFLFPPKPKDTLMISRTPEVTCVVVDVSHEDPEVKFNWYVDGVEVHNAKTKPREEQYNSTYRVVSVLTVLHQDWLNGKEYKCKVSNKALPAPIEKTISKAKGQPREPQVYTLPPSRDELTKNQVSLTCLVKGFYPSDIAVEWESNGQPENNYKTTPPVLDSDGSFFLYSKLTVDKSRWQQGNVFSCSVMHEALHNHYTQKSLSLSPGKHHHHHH

[5] = target: recombinant human c-Met/Fc chimera (R&D systems) (human); experiment: HGF/c-Met competition Alphascreen, in absence of HSA
[6] = target: recombinant human c-Met/Fc chimera (R&D systems) (human); experiment: HGF/c-Met competition Alphascreen, in presence of 5 uM HSA

Human c-Met (human), sequence (P08581 25-1390 limits assumed): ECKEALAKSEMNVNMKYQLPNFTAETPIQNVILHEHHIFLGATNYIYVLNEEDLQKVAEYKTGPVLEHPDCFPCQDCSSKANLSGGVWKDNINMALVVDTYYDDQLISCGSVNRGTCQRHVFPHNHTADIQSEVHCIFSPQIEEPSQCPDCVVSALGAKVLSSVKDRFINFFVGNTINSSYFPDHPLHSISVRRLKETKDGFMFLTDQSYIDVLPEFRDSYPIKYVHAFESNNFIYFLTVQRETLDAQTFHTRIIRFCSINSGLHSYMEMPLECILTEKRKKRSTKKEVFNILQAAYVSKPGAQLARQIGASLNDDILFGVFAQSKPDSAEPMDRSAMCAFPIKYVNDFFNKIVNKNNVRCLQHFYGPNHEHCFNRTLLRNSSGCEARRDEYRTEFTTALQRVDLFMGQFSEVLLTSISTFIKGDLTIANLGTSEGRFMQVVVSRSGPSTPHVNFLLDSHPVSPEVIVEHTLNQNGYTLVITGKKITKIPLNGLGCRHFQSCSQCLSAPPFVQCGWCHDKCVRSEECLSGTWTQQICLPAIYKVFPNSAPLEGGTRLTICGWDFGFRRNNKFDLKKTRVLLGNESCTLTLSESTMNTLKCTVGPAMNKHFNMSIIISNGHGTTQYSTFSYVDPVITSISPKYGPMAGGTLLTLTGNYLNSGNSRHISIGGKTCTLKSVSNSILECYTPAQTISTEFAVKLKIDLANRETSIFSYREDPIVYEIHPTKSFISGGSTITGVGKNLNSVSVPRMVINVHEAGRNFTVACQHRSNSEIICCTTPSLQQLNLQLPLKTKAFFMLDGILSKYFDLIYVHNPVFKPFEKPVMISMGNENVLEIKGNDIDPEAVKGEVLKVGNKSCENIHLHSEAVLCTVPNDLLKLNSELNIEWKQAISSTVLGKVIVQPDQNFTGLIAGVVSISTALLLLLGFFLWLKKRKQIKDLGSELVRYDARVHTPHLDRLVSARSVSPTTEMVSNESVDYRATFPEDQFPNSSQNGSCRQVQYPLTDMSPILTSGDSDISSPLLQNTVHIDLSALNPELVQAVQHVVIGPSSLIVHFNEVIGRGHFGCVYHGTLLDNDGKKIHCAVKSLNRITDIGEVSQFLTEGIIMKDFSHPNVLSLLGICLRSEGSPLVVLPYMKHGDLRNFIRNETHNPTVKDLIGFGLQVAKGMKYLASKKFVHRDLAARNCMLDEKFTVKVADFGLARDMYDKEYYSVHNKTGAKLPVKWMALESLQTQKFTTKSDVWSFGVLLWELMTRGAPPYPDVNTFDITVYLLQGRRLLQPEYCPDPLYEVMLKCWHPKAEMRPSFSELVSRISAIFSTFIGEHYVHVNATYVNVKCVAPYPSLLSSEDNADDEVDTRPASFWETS
cynomolgus c-Met (cynomolgus monkey), sequence (A0M8R7 25-1381 S170N/I621T limits assumed): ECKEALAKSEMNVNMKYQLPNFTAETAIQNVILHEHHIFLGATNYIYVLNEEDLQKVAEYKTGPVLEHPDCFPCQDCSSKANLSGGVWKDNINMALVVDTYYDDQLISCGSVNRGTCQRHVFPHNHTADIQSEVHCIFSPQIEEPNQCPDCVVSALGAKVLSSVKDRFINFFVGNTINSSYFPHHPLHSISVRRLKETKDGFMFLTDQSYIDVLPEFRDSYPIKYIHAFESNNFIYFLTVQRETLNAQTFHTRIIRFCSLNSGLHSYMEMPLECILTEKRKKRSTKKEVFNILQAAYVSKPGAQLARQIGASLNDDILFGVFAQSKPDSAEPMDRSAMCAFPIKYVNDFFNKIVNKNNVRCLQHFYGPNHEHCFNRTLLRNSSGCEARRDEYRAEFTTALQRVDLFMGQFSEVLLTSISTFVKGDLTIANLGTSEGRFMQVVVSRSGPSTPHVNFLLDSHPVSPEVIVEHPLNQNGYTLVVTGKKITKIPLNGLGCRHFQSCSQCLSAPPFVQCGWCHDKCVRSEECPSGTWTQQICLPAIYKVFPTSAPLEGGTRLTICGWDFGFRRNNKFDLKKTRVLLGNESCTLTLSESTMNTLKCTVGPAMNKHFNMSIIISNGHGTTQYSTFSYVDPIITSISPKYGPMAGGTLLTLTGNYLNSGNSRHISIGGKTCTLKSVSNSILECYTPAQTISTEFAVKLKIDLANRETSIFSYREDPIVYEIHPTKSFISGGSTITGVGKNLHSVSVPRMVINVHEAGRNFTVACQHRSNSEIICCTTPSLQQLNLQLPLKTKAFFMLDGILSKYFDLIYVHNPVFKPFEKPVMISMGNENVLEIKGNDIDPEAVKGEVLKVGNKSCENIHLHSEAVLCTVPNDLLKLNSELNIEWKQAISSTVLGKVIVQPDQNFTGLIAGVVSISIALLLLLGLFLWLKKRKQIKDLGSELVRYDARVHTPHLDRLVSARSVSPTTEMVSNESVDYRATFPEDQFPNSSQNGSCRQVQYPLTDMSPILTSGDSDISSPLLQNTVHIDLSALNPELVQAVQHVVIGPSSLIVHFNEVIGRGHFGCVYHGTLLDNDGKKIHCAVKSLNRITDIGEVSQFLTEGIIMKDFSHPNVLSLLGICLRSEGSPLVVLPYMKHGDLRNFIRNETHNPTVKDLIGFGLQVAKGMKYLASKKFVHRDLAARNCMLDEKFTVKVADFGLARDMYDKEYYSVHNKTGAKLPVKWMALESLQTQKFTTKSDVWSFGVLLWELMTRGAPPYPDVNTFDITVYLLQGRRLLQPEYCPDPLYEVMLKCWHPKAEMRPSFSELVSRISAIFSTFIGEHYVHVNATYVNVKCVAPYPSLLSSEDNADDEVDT

| IC50 [1] | IC50 [2] | concentration of maximal c-Met phosphorylation in A549 cells [3] | % inhibition [4] | IC50 [4] | % inhibition of HGF-dependent A549 cell migration [3] | % inhibition of HGF-dependent c-Met phosphorylation, A549 cells, experiment 1 [3] | % inhibition of HGF-dependent c-Met phosphorylation, A549 cells, experiment 2 [3] | % inhibition of HGF-dependent proliferation of BxPC3 cells [3] | IC50, HGF-dependent A549 cell migration [3] | IC50, HGF-dependent c-Met phosphorylation, A549 cells, experiment 1 [3] | IC50, HGF-dependent c-Met phosphorylation, A549 cells, experiment 2 [3] | IC50, HGF-dependent proliferation of BxPC3 cells [3] | IC50 [5] | IC50 [6] | Substance |
| --- | --- | --- | --- | --- | --- | --- | --- | --- | --- | --- | --- | --- | --- | --- | --- |
| 2.72 nM | 6.7 nM | 37 nM | – | – | – | – | – | – | – | – | – | – | – | – | anti-c-Met antibody 5D5 |
| 11.3 nM | – | – | 101% | 1.3 nM | 112% | 96.4% | 95.9% | 94.8% | 5.48 nM | 10.4 nM | 9.09 nM | 34.3 nM | 3.2 nM | 3.1 nM | anti-c-Met antibody fragment 5D5 Fab from mAb |
